Measurements as given in US10155934B2, “Cytochrome P450 polypeptide with increased enzyme activity” (SANOFI, priority 2014, dated 2018).
Changes are numbered by the printed parent chain. Numbers in names are those of the source.

B1: SA1: CYP11A1 comprising a threonine at position 225 and an aspartic acid at position 289 (protein)
chain: ISTKTPRPYSEIPSPGDNGWLNLYHFWREKGSQRIHFRHIENFQKYGPIYREKLGNLESVYIIHPEDVAHLFKFEGSYPERYDIPPWLAYHRYYQKPIGVLFKKSGTWKKDRVVLNTEVMAPEAIKNFIPLLNPVSQDFVSLLHKRIKQQGSGKFVGDIKEDLFHFAFESITNVMFGERLGMLEETVNPEAQKFIDAVYKMFHTSVPLLNVPPELYRLFRTKTWTDHVAAWDTIFNKAEKYTEIFYQDLRRKTEFRNYPGILYCLLKSEKMLLEDVKANITEMLAGGVDTTSMTLQWHLYEMARSLNVQEMLREEVLNARRQAEGDISKMLQMVPLLKASIKETLRLHPISVTLQRYPESDLVLQDYLIPAKTLVQVAIYAMGRDPAFFSSPDKFDPTRWLSKDKDLIHFRNLGFGWGVRQCVGRRIAELEMTLFLIHILENFKVEMQHIGDVDTIFNLILTPDKPIFLVFRPFNQDPPQA
modifications: Mutated amino acid sequence of CYP11A1
B2: SA4: WT Bos taurus CYP11A1, mature form, wild-type control (protein, listed as Bos taurus)
chain: B1 chain with T225R, D289N
B3: SA6: P450scc-I1A-K193E polypeptide, control (protein)
chain: B1 chain with I1A, K154E, T225R, D289N
modifications: Mutated amino acid sequence of CYP11A1
notes: P450scc-I1A-K193E polypeptide, control

Experiments:
[1] = tested on: cholesterol; assay: In vivo conversion of cholesterol into pregnenolone by recombinant Bacillus megaterium expressing the P450scc polypeptide; format: cell-based; conditions: 300 μM cholesterol, Bacillus megaterium MS941, assessed after 24 h and 48 h (FIGS. 3 and 4)
[2] = tested on: cholesterol; assay: In vitro conversion assay of cholesterol by purified CYP11A1 variants with Adx and AdR; format: biochemical; conditions: 20 μM cholesterol, saturating Adx and AdR; for activity, SA4 compared with SA6 (in vitro conversion of cholesterol): 1 μM enzyme
Method: For in vitro enzyme assays, 150 mM of HEPES buffer, adjusted to pH 7.4, containing 0.05% Tween-20 and 1 mM MgCl2, were applied as reaction buffer. 1 unit of glucose-6-phosphate dehydrogenase, with 5 mM glucose-6-phosphate as substrate, served as a NADPH-regenerating system.
For WT P450scc (noted “SA4”, SEQ ID NO: 4) and P450scc-I1A-K193E (noted “SA6”, SEQ ID NO: 6) the concentrations of CYP11A1, Adx and AdR were of 1 μM, 20 μM and 0.5 μM, and for P450scc-R225T-N289D (noted “SA1”, SEQ ID NO: 1) the concentrations of CYP11A1, Adx and AdR were of 0.25 μM, 5 μM and 0.125 μM, respectively.
The samples were pre-warmed to 37° C. and the reaction was started by addition of NADPH to a final concentration of 100 μM. The mixtures were incubated at 37° C. with agitation for 30 s. The reaction was stopped by boiling the samples in water for 30 s.
To allow photometric detection at 240 nm, the steroids were converted into their 3-keto-Δ4 derivatives using a cholesterol oxidase from Nocardia spec.
20 μl of a cholesterol oxidase solution (5 mg cholesterol oxidase and 5 mg Na-cholate dissolved in 5 ml of 50 mM HEPES buffer pH 7, containing 0.05% Tween-20) were added to the samples. After incubation at 37° C. for 1 h, 11-deoxycorticosterone (DOC) was added to the reaction mixtures as an internal standard, followed by a 2-times extraction with equal volumes of ethylacetate. After evaporation, the extracts were dissolved in acetonitrile/water.
After acute evaluation of the concentration of each P450scc preparation, SA1, SA4 and SA6 were used in the following in vitro assays. Each of these isoforms was reconstituted at a concentration of 1 μM in the presence of cholesterol as a substrate (20 μM) in saturating amounts of Adx and AdR.

| Molecule | in vivo cholesterol conversion activity compared to SA6 [1] [fold] | activity compared to SA4 and SA6 (in vitro conversion of cholesterol) ([2]; 37° C., 30 s, HPLC (FIG. 1)) | activity, SA4 compared with SA6 (in vitro conversion of cholesterol) [2] |
| --- | --- | --- | --- |
| B1 | 2 | 2-3 fold | – |
| B2 | – | – | identical activity |
| B3 | – | – | identical activity |
